Measurements from patent US20100130424A1 (Janssen / Centocor, published 2010).
Numbering of substitutions follows the chain as printed. Each block holds one binder with its values, some of them ahead of it. No end group written: not given here.

Target: T1, human CRH receptor type 2 (human, UniProt Q13324 1-411)
T1 sequence (looked up): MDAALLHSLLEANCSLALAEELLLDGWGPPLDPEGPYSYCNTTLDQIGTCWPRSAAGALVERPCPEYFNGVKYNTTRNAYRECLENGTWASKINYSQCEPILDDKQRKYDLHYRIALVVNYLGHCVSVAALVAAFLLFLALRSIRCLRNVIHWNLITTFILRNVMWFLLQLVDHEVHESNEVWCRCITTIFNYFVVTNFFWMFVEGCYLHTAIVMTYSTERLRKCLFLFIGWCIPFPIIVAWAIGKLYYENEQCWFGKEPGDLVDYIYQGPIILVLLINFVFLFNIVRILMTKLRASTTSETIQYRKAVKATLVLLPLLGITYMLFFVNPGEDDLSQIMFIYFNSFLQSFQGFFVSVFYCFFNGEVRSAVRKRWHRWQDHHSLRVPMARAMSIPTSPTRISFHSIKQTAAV
Test: cell-based or functional assay

B1: Cys-variant CRHR2 peptide agonist, SEQ ID NO: 14 (peptide)
peptide: TKFTLSLDVPTNCMNLLFNIAKAKNLRAQAAANAHLMAQI-NH2
Log DR against h-SCP, cAMP: > 2 log10 ratio
pA50, cAMP: ~7.34 -log M

B2: Cys-variant CRHR2 peptide agonist, SEQ ID NO: 16 (peptide)
peptide: TKFTLSLDVPTNIMCLLFNIAKAKNLRAQAAANAHLMAQI-NH2
Log DR against h-SCP, cAMP: 0.76 log10 ratio
pA50, cAMP: 8.93 -log M

B3: Cys-variant CRHR2 peptide agonist, SEQ ID NO: 25 (peptide)
peptide: TKFTLSLDVPTNIMNLLFNIAKACNLRAQAAANAHLMAQI-NH2
Log DR against h-SCP, cAMP: 0.35 log10 ratio
pA50, cAMP: 9.17 -log M

B4: Cys-variant CRHR2 peptide agonist, SEQ ID NO: 26 (peptide)
peptide: TKFTLSLDVPTNIMNLLFNIAKAKCLRAQAAANAHLMAQI-NH2
Log DR against h-SCP, cAMP: 0.08 log10 ratio
pA50, cAMP: 9.44 -log M

B5: Cys-variant CRHR2 peptide agonist, SEQ ID NO: 23 (peptide)
peptide: TKFTLSLDVPTNIMNLLFNIACAKNLRAQAAANAHLMAQI-NH2
Log DR against h-SCP, cAMP: 1.13 log10 ratio
pA50, cAMP: 8.55 -log M

B6: Cys-variant CRHR2 peptide agonist, SEQ ID NO: 22 (peptide)
peptide: TKFTLSLDVPTNIMNLLFNICKAKNLRAQAAANAHLMAQI-NH2
Log DR against h-SCP, cAMP: 0.52 log10 ratio
pA50, cAMP: 9.17 -log M

B7: Cys-variant CRHR2 peptide agonist, SEQ ID NO: 19 (peptide)
peptide: TKFTLSLDVPTNIMNLLCNIAKAKNLRAQAAANAHLMAQI-NH2
Log DR against h-SCP, cAMP: 1.67 log10 ratio
pA50, cAMP: 8.01 -log M

B8: Pegylated Cys-variant CRHR2 peptide agonist (NES linker, PEG about 20 kDa), SEQ ID NO: 66 (peptide)
peptide: TKFTLSLDVPTCIMNLLFNIAKAKNLRAQAAANAHLMAQI
modifications: NES-PEG (about 20 kDa) on Cys 12; C-terminal amide
Log DR against h-SCP, cAMP: 1.26 log10 ratio
pA50, cAMP: 8.31 -log M

B9: Pegylated Cys-variant CRHR2 peptide agonist (NES linker, PEG about 20 kDa), SEQ ID NO: 67 (peptide)
peptide: B8 peptide with C12N, I13C
modifications: NES-PEG (about 20 kDa) on Cys 13; C-terminal amide
Log DR against h-SCP, cAMP: > 3 log10 ratio
pA50, cAMP: ~6.35 -log M

B10: Pegylated Cys-variant CRHR2 peptide agonist (NES linker, PEG about 20 kDa), SEQ ID NO: 69 (peptide)
peptide: B8 peptide with C12N, N15C
modifications: NES-PEG (about 20 kDa) on Cys 15; C-terminal amide
Log DR against h-SCP, cAMP: 2.09 log10 ratio
pA50, cAMP: 7.45 -log M

B15: Pegylated Cys-variant CRHR2 peptide agonist (NES linker, PEG about 20 kDa), SEQ ID NO: 68 (peptide)
peptide: B8 peptide with C12N, M14C
modifications: NES-PEG (about 20 kDa) on Cys 14; C-terminal amide
Log DR against h-SCP, cAMP: ~2.61 log10 ratio
pA50, cAMP: ~6.96 -log M

B21: Pegylated Cys-variant CRHR2 peptide agonist (NES linker, PEG about 20 kDa), SEQ ID NO: 71 (peptide)
peptide: B8 peptide with C12N, L17C
modifications: NES-PEG (about 20 kDa) on Cys 17; C-terminal amide
Log DR against h-SCP, cAMP: ~2.26 log10 ratio
pA50, cAMP: ~7.35 -log M

B23: Pegylated Cys-variant CRHR2 peptide agonist (NES linker, PEG about 20 kDa), SEQ ID NO: 70 (peptide)
peptide: B8 peptide with C12N, L16C
modifications: NES-PEG (about 20 kDa) on Cys 16; C-terminal amide
Log DR against h-SCP, cAMP: ~2.07 log10 ratio
pA50, cAMP: ~7.34 -log M

B25: Cys-variant CRHR2 peptide agonist, SEQ ID NO: 18 (peptide)
peptide: TKFTLSLDVPTNIMNLCFNIAKAKNLRAQAAANAHLMAQI-NH2
Log DR against h-SCP, cAMP: 1.11 log10 ratio
pA50, cAMP: 8.41 -log M

B26: Cys-variant CRHR2 peptide agonist, SEQ ID NO: 13 (peptide)
peptide: TKFTLSLDVPTCIMNLLFNIAKAKNLRAQAAANAHLMAQI-NH2
Log DR against h-SCP, cAMP: -0.01 log10 ratio
pA50, cAMP: 9.59 -log M

B27: Cys-variant CRHR2 peptide agonist, SEQ ID NO: 17 (peptide)
peptide: TKFTLSLDVPTNIMNCLFNIAKAKNLRAQAAANAHLMAQI-NH2
Log DR against h-SCP, cAMP: 0.02 log10 ratio
pA50, cAMP: 9.5 -log M

B28: Cys-variant CRHR2 peptide agonist, SEQ ID NO: 24 (peptide)
peptide: TKFTLSLDVPTNIMNLLFNIAKCKNLRAQAAANAHLMAQI-NH2
Log DR against h-SCP, cAMP: 0.74 log10 ratio
pA50, cAMP: 8.94 -log M

B29: Cys-variant CRHR2 peptide agonist, SEQ ID NO: 20 (peptide)
peptide: TKFTLSLDVPTNIMNLLFCIAKAKNLRAQAAANAHLMAQI-NH2
Log DR against h-SCP, cAMP: 0.52 log10 ratio
pA50, cAMP: 9 -log M

B30: Cys-variant CRHR2 peptide agonist, SEQ ID NO: 15 (peptide)
peptide: TKFTLSLDVPTNICNLLFNIAKAKNLRAQAAANAHLMAQI-NH2
Log DR against h-SCP, cAMP: 0.9 log10 ratio
pA50, cAMP: 8.68 -log M

B31: Cys-variant CRHR2 peptide agonist, SEQ ID NO: 29 (peptide)
peptide: TKFTLSLDVPTNIMNLLFNIAKAKNLRCQAAANAHLMAQI-NH2
Log DR against h-SCP, cAMP: 0 log10 ratio
pA50, cAMP: 9.47 -log M

B32: Cys-variant CRHR2 peptide agonist, SEQ ID NO: 27 (peptide)
peptide: TKFTLSLDVPTNIMNLLFNIAKAKNCRAQAAANAHLMAQI-NH2
Log DR against h-SCP, cAMP: 0.76 log10 ratio
pA50, cAMP: 8.76 -log M

B33: Cys-variant CRHR2 peptide agonist, SEQ ID NO: 28 (peptide)
peptide: TKFTLSLDVPTNIMNLLFNIAKAKNLCAQAAANAHLMAQI-NH2
Log DR against h-SCP, cAMP: 0.16 log10 ratio
pA50, cAMP: 9.36 -log M

B34: Cys-variant CRHR2 peptide agonist, SEQ ID NO: 21 (peptide)
peptide: TKFTLSLDVPTNIMNLLFNCAKAKNLRAQAAANAHLMAQI-NH2
Log DR against h-SCP, cAMP: 0.77 log10 ratio
pA50, cAMP: 8.75 -log M

Second part, the binder after the results:

Log DR against h-SCP, cAMP: 1.27 log10 ratio
pA50, cAMP: 8.27 -log M
B11: Pegylated Cys-variant CRHR2 peptide agonist (NES linker, PEG about 20 kDa), SEQ ID NO: 77 (peptide)
peptide: B8 peptide with C12N, A23C
modifications: NES-PEG (about 20 kDa) on Cys 23; C-terminal amide

Log DR against h-SCP, cAMP: 1.11 log10 ratio
pA50, cAMP: 8.5 -log M
B12: Pegylated Cys-variant CRHR2 peptide agonist (NES linker, PEG about 20 kDa), SEQ ID NO: 79 (peptide)
peptide: B8 peptide with C12N, N25C
modifications: NES-PEG (about 20 kDa) on Cys 25; C-terminal amide

Log DR against h-SCP, cAMP: ~2.28 log10 ratio
pA50, cAMP: ~7.33 -log M
B13: Pegylated Cys-variant CRHR2 peptide agonist (NES linker, PEG about 20 kDa), SEQ ID NO: 74 (peptide)
peptide: B8 peptide with C12N, I20C
modifications: NES-PEG (about 20 kDa) on Cys 20; C-terminal amide

Log DR against h-SCP, cAMP: 1.82 log10 ratio
pA50, cAMP: 7.83 -log M
B14: Pegylated Cys-variant CRHR2 peptide agonist (NES linker, PEG about 20 kDa), SEQ ID NO: 81 (peptide)
peptide: B8 peptide with C12N, R27C
modifications: NES-PEG (about 20 kDa) on Cys 27; C-terminal amide

Log DR against h-SCP, cAMP: 1.5 log10 ratio
pA50, cAMP: 8.04 -log M
B16: Pegylated Cys-variant CRHR2 peptide agonist (NES linker, PEG about 20 kDa), SEQ ID NO: 72 (peptide)
peptide: B8 peptide with C12N, F18C
modifications: NES-PEG (about 20 kDa) on Cys 18; C-terminal amide

Log DR against h-SCP, cAMP: 1.75 log10 ratio
pA50, cAMP: 7.6 -log M
B17: Pegylated Cys-variant CRHR2 peptide agonist (NES linker, PEG about 20 kDa), SEQ ID NO: 80 (peptide)
peptide: B8 peptide with C12N, L26C
modifications: NES-PEG (about 20 kDa) on Cys 26; C-terminal amide

Log DR against h-SCP, cAMP: 1.3 log10 ratio
pA50, cAMP: 8.24 -log M
B18: Pegylated Cys-variant CRHR2 peptide agonist (NES linker, PEG about 20 kDa), SEQ ID NO: 75 (peptide)
peptide: B8 peptide with C12N, A21C
modifications: NES-PEG (about 20 kDa) on Cys 21; C-terminal amide

Log DR against h-SCP, cAMP: 1.12 log10 ratio
pA50, cAMP: 8.4 -log M
B19: Pegylated Cys-variant CRHR2 peptide agonist (NES linker, PEG about 20 kDa), SEQ ID NO: 82 (peptide)
peptide: B8 peptide with C12N, A28C
modifications: NES-PEG (about 20 kDa; MW20000) on Cys 28; C-terminal amide

Log DR against h-SCP, cAMP: 1.11 log10 ratio
pA50, cAMP: 8.29 -log M
B20: Pegylated Cys-variant CRHR2 peptide agonist (NES linker, PEG about 20 kDa), SEQ ID NO: 73 (peptide)
peptide: B8 peptide with C12N, N19C
modifications: NES-PEG (about 20 kDa) on Cys 19; C-terminal amide

Log DR against h-SCP, cAMP: 2.7 log10 ratio
pA50, cAMP: 6.84 -log M
B22: Pegylated Cys-variant CRHR2 peptide agonist (NES linker, PEG about 20 kDa), SEQ ID NO: 76 (peptide)
peptide: B8 peptide with C12N, K22C
modifications: NES-PEG (about 20 kDa) on Cys 22; C-terminal amide

Log DR against h-SCP, cAMP: ~1.52 log10 ratio
pA50, cAMP: ~7.89 -log M
B24: Pegylated Cys-variant CRHR2 peptide agonist (NES linker, PEG about 20 kDa), SEQ ID NO: 78 (peptide)
peptide: B8 peptide with C12N, K24C
modifications: NES-PEG (about 20 kDa) on Cys 24; C-terminal amide
